Here are results for 2 molecules from PMC9817314, “Detection of human annexin A1 as the novel N-terminal tag for separation and purification handle” (Microbial Cell Factories, 2023).

The target of one assay is S100A11 (Homo sapiens) (UniProt P31949). The conditions noted are these: cited from earlier work.
Assay [1] addresses T1, human annexin A1 (hanA1) tagged emerald green fluorescent protein (EmGFP) (human, UniProt P04083 3-346).
T1 construct: human annexin A1, amplified from a human brain cDNA library; EmGFP (reporter, detected by fluorescence) follows after the BamH I / Bgl II junction; also called hanA1-EmGFP; HanA1-EmGFP; source: E. coli BL21(DE3); in crude extract (clear lysate), or separated by CaCl2 precipitation and EDTA-Na2 resolubilisation; not shown: EmGFP, C-terminal, kept
T1 sequence (looked up): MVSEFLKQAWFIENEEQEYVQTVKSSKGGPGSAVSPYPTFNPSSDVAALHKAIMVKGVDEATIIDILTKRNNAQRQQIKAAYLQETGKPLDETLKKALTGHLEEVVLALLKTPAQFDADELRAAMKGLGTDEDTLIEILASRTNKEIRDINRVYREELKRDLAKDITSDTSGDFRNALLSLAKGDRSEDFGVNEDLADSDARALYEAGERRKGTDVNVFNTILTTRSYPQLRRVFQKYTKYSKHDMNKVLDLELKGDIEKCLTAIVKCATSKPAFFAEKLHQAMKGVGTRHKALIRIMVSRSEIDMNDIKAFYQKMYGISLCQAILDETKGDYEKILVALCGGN
In words: pull-down; MBP-hS100A11 immobilised on amylose resin; hanA1-EmGFP in crude extract (clear lysate) in buffer B (20 mM Tris-HCl pH 8.0, 10% glycerol, 1 mM CaCl2), room temperature, 2 h; washed with buffer B containing 50 mM NaCl; eluted with buffer C (buffer A with 5 mM EDTA-Na2); SDS-PAGE. The conditions noted are these: one partner purified.

As to “annexin I N-terminal peptide (from UniProt P04083)”, the dissociation constant Kd in the assay with S100A11 (Homo sapiens) is 5 µM.

B1: MBP-hS100A11 (human S100A11 fused to maltose binding protein) (natural protein, UniProt P31949 2-105, looked up)
chain: AKISSPTETERCIESLIAVFQKYAGKDGYNYTLSKTEFLSFMNTELAAFTKNQKDPGVLDRMMKKLDTNSDGQLDFSEFLNLIGGLAMACHDSFLKAVPSQKRT
notes: human S100A11, amplified from a human cDNA library; also called MBP-S100A11; immobilized S100A11; source: E. coli, soluble; immobilised on amylose resin and washed; not shown: MBP, N-terminal, kept
As for B1, in assay [1], the binding result is given as “binds”.
